In general, Ki refers to a measure of affinity in units of concentration, obtained from inhibition or displacement.

Binding result and Ki data for 5 molecules are collected here from patent publication US20030003461, “Truncation selex method” (Gilead Sciences, Inc., published 2003).

The target of data set [1] is T1, MS2 coat protein (MS2 CP) (bacteriophage MS2, UniProt P03612 P03612:2-130, V75E;A81G). As to the kind of experiment: filter; only marginally worse than full isolate. The conditions noted are these: chain copies: 2 (dimer, stated); hairpin.
In data set [2] the target is T2, VEGF (Homo sapiens, UniProt P15692-4 P15692-4:27-191). As to the kind of experiment: filter; phenotype 5: non-binding with or without 3' fixed sequence. The conditions noted are these: tags: recombinant human, R&D Systems; chain copies: 2.
T2 sequence (P15692 other isoform, or with tags, fused parts or gaps): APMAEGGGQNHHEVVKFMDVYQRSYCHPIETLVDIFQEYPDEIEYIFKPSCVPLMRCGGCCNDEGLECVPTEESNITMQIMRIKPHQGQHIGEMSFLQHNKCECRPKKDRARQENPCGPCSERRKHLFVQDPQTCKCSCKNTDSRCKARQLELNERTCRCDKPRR
Data set [3] concerns the target T2, VEGF. As to the kind of experiment: filter; phenotype 4: unaffected (Table 10 clone 34,36a: phenotype 1). The conditions noted are these: tags: recombinant human, R&D Systems; chain copies: 2.
The target in data set [4] is TGFβ1 (Homo sapiens, UniProt P01137 P01137:279-390). As to the kind of experiment: cell_activity; full inhibition of TGFβ1 in mink lung epithelial cell proliferation assay. The conditions noted are these: tags: recombinant human, R&D Systems; chain copies: 2. The protocol: RNA was synthesized by phosphoramidite chemistry. Indicator cells (mink lung epithelial cells) were incubated with TGFβ1 and dilutions of RNA as described. The extent of cell proliferation was measured by ³H-thymidine incorporation and the data were analyzed as described. The points represent an average of n=2 and error bars are standard errors. The sequence of CD70syn and 30N7-9syn are 5′[…] (SEQ ID NO:323) and 5′[…] (SEQ ID NO:324), respectively.
Chain of TGFβ1 (P01137 279-390, one chain of several): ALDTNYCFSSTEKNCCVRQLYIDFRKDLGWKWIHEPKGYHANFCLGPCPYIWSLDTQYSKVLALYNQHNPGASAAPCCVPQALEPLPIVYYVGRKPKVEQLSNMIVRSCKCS
The bioactivity of TGFβ1 nucleic acid ligands was measured with mink lung epithelial cells as described in U.S. patent application Ser. No. 09/046,247, filed Mar. 23, 1998. Briefly, proliferation of these cells is inhibited by TGFβ1. Human TGFβ1 was titrated on the cells and ³H-thymidine incorporation was measured. The point at which ³H-thymidine incorporation by the cells was inhibited by 90-100% was determined (typically 1-4 pM). This inhibitory amount of TGFβ1 along with varying amounts of nucleic acid ligand (typically 0.3 or 1 nM to 1 or 3 μM, in 3 fold increments) was used. Cells were plated at 1×10⁵/ml in 96-well plates in 100 μl MEM, 10 mM HEPES pH 7.5, 0.2% FBS. […] After incubation, the cells were lysed with 1% Triton X-100 and harvested onto GF/B filter plates by the Packard 96 well plate harvester, and ³H-thymidine incorporation in cellular DNA was quantitated by scintillation counting in microscint at the Packard Top-Count. […]

Data set [5] has as its target T1, MS2 coat protein (MS2 CP). As to the kind of experiment: filter; tightest of the isolates; 100 mM HEPES-KOH pH 7.5, 80 mM KCl, 10 mM MgCl2, 24-25 C. The conditions noted are these: chain copies: 2 (dimer, stated); hairpin.

For GGCACGCGUAUUCACUGAGCAUCAGCCAGACUGUGU (ssRNA) [rffG minus fixed sequences], the binding result in data set [1] was “binds”. As for GGGAGGAAGAAUUGGAAACAUUGCUCGUCAGACGACUCGCCCGA (ssRNA, 2'-F pyrimidines) [T1-11], the binding result in data set [2] was “no binding”.

B1: VEGF hyb 10,16b (ssRNA)
RNA: GGGAGGACGAUGCGGUGAAACGGAAGAAUUGGAAACAUUGCUCGUCAGACGACUCGCCCGA
modifications: 2'-F pyrimidines
As for B1, the binding result in data set [3] is “binds”. As to GGGUGCCUUUUGCCUAGGUUGUGAUUUGUAACCUUCUGCCCA (ssRNA, 2'-F pyrimidines (inferred)) [CD70syn], the inhibition constant (Ki) in data set [4] was around 74.6 nM.

B2: rffG isolate 1 (ssRNA)
RNA: GGGAAAGCCCACGCCGGCACGCGUAUUCACUGAGCAUCAGCCAGACUGUGUACCGAACUGCCGCACC
With B2, the binding result in data set [5] is reported as “binds”.
